T1: Bbc1, P47068
T1 sequence (P47068 1-78, looked up): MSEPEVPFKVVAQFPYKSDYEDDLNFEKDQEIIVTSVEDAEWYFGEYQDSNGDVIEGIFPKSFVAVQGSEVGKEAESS

T2: Cyk3, Q07533
T2 sequence (Q07533 1-83, looked up): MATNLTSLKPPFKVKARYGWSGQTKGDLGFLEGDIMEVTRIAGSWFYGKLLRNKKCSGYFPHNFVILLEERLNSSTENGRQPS

T3: Pex13, P80667
T3 sequence (P80667 295-386, looked up): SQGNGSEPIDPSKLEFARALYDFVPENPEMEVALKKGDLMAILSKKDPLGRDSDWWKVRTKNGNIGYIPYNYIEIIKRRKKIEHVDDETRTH

T4: Boi2, P39969
T4 sequence (P39969 32-116, looked up): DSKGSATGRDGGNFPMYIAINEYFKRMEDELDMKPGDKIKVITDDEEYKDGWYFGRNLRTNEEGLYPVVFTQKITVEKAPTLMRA

T5: Bud14, P27637
T5 sequence (P27637 247-328, looked up): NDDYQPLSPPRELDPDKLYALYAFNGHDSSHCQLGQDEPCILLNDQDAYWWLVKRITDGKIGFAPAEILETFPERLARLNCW

T6: Hof1, Q05080
T6 sequence (Q05080 590-669, looked up): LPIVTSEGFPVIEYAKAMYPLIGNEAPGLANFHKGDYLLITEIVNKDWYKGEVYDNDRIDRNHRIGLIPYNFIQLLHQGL

T7: Cdc25, P04821
T7 sequence (P04821 50-136, looked up): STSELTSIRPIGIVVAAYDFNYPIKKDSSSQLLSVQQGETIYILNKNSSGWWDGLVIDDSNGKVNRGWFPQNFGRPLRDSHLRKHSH

T8: Myo5, Q04439
T8 sequence (Q04439 1072-1160, looked up): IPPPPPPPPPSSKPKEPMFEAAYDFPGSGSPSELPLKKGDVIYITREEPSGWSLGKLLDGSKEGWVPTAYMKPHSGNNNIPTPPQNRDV

T9: Hse1, P38753
T9 sequence (P38753 208-285, looked up): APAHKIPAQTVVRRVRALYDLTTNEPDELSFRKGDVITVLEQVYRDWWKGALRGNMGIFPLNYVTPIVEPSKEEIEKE

T10: Bzz1-1, P38822
T10 sequence (P38822 478-572, looked up): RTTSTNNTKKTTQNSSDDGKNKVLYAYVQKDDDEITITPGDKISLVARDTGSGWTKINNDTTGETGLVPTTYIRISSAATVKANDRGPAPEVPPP

T11: Lsb3, P43603
T11 sequence (P43603 385-451, looked up): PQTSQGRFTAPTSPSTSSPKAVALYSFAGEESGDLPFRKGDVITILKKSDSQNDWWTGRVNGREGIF

T12: Boi1, P38041
T12 sequence (P38041 1-86, looked up): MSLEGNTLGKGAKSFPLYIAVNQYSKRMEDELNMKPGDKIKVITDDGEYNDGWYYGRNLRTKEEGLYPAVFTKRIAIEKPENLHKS

T13: Lsb4, P32793
T13 sequence (P32793 402-468, looked up): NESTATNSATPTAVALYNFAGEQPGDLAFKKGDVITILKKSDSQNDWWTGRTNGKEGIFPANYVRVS

T14: Sla1-2, P32790
T14 sequence (P32790 60-140, looked up): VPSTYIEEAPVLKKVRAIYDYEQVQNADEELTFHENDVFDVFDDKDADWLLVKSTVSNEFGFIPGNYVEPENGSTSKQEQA

T15: Bzz1-2, P38822
T15 sequence (P38822 568-633, looked up): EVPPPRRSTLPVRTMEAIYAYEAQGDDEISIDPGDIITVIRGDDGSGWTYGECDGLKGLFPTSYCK

T16: Fus1, P11710
T16 sequence (P11710 432-512, looked up): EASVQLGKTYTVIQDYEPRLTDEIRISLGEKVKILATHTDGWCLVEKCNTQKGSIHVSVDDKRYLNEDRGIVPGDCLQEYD

T17: Lsb1, P53281
T17 sequence (P53281 45-122, looked up): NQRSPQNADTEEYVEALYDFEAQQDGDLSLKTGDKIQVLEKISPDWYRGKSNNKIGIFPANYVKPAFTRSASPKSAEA

T18: Pin3, Q06449
T18 sequence (Q06449 53-122, looked up): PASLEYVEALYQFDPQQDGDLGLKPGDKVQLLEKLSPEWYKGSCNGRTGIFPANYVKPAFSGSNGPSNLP

T19: Nbp2, Q12163
T19 sequence (Q12163 103-180, looked up): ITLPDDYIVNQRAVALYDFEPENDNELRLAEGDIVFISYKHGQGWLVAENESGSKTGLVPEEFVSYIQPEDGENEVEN

T20: Abp1, P15891
T20 sequence (P15891 535-592, looked up): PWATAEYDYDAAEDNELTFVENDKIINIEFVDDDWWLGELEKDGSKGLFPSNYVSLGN

T21: Sla1-3, P32790
T21 sequence (P32790 344-424, looked up): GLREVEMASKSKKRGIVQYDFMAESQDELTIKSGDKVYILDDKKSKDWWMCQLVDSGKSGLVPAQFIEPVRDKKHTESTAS


Tests used:
Experiment in all cases: SPOT array
[1] = molecular target: T1, Bbc1, P47068; conditions: median of control spots 796
[2] = molecular target: T2, Cyk3, Q07533; conditions: median of control spots 1451
[3] = molecular target: T3, Pex13, P80667; conditions: median of control spots 1341
[4] = molecular target: T4, Boi2, P39969; conditions: median of control spots 1161
[5] = molecular target: T5, Bud14, P27637; conditions: median of control spots 956
[6] = molecular target: T6, Hof1, Q05080; conditions: median of control spots 4086
[7] = molecular target: T7, Cdc25, P04821; conditions: median of control spots 969
[8] = molecular target: T8, Myo5, Q04439; conditions: median of control spots 471
[9] = molecular target: T9, Hse1, P38753; conditions: median of control spots 1727
[10] = molecular target: Bem1-1, P29366; conditions: median of control spots 4282
[11] = molecular target: T10, Bzz1-1, P38822; conditions: median of control spots 4446
[12] = molecular target: T11, Lsb3, P43603; conditions: median of control spots 406
[13] = molecular target: Myo3, P36006; conditions: median of control spots 468
[14] = molecular target: T12, Boi1, P38041; conditions: median of control spots 1162
[15] = molecular target: Sho1, P40073; conditions: median of control spots 1148
[16] = molecular target: T13, Lsb4, P32793; conditions: median of control spots 397
[17] = molecular target: T14, Sla1-2, P32790; conditions: median of control spots 712
[18] = molecular target: GST; conditions: median of control spots 978
[19] = molecular target: T15, Bzz1-2, P38822; conditions: median of control spots 4538
[20] = molecular target: Bem1-2, P29366; conditions: median of control spots 4347
[21] = molecular target: T16, Fus1, P11710; conditions: median of control spots 1200
[22] = molecular target: T17, Lsb1, P53281; conditions: median of control spots 388
[23] = molecular target: T18, Pin3, Q06449; conditions: median of control spots 2171
[24] = molecular target: T19, Nbp2, Q12163; conditions: median of control spots 357
[25] = molecular target: Rvs167, P39743; conditions: median of control spots 2707
[26] = molecular target: T20, Abp1, P15891; conditions: median of control spots 935
[27] = molecular target: T21, Sla1-3, P32790; conditions: median of control spots 5475

Chain of Sho1, P40073 (P40073 287-367): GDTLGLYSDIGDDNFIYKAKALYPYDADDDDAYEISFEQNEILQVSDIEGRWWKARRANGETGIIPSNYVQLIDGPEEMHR
Chain of Bem1-1, P29366 (P29366 55-141): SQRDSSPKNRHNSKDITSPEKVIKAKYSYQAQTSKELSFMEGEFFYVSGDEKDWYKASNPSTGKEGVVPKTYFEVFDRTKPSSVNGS
Chain of Rvs167, P39743 (P39743 419-482): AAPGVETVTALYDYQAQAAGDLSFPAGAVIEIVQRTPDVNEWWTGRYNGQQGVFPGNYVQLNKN
Chain of Bem1-2, P29366 (P29366 139-227): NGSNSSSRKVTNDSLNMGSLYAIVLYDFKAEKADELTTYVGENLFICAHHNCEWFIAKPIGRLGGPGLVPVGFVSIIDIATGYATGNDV

Binder	SPOT intensity [1]	SPOT intensity [2]	SPOT intensity [3]	SPOT intensity [4]	SPOT intensity [5]	SPOT intensity [6]	SPOT intensity [7]	SPOT intensity [8]	SPOT intensity [9]	SPOT intensity [10]	SPOT intensity [11]	SPOT intensity [12]	SPOT intensity [13]	SPOT intensity [14]	SPOT intensity [15]	SPOT intensity [16]	SPOT intensity [17]	SPOT intensity [18]	SPOT intensity [19]	SPOT intensity [20]	also measured
GKKVRPLLVLLLSRA	67	0	19	4	9	0	132	1	0	0	0	6	7	14	51	2	0	0	0	0	SPOT intensity [21]: 4; SPOT intensity [22]: 0; SPOT intensity [23]: 0; SPOT intensity [24]: 10; SPOT intensity [25]: 0; SPOT intensity [26]: 37; SPOT intensity [27]: 0
FHLNPKRSAVLYDRP	10	0	35	0	9	83	25	1	40	245	3	0	0	0	35	0	0	5	38	308	SPOT intensity [21]: 309; SPOT intensity [22]: 0; SPOT intensity [23]: 32; SPOT intensity [24]: 0; SPOT intensity [25]: 7; SPOT intensity [26]: 24; SPOT intensity [27]: 140
LLIRWLILMPLVGSR	339	4	78	4	29	12	176	10	25	0	3	6	34	23	150	25	3	2	7	4	SPOT intensity [21]: 168; SPOT intensity [22]: 47; SPOT intensity [23]: 47; SPOT intensity [24]: 215; SPOT intensity [25]: 1; SPOT intensity [26]: 166; SPOT intensity [27]: 7

Second part, led by results:

SPOT intensity [1]	SPOT intensity [2]	SPOT intensity [3]	SPOT intensity [4]	SPOT intensity [5]	SPOT intensity [6]	SPOT intensity [7]	SPOT intensity [8]	SPOT intensity [9]	SPOT intensity [10]	SPOT intensity [11]	SPOT intensity [12]	SPOT intensity [13]	SPOT intensity [14]	SPOT intensity [15]	SPOT intensity [16]	SPOT intensity [17]	SPOT intensity [18]	SPOT intensity [19]	SPOT intensity [20]	Binder	also measured
35	0	56	0	10	0	36	3	5	1	0	8	17	0	137	38	6	0	2	0	ILARAILTIPRVLDK	SPOT intensity [21]: 9; SPOT intensity [22]: 23; SPOT intensity [23]: 107; SPOT intensity [24]: 17; SPOT intensity [25]: 0; SPOT intensity [26]: 189; SPOT intensity [27]: 4
0	1	11	1	8	0	18	0	0	0	0	0	1	4	0	0	0	1	0	1	GTIARPLFLVVLFFI	SPOT intensity [21]: 9; SPOT intensity [22]: 0; SPOT intensity [23]: 3; SPOT intensity [24]: 0; SPOT intensity [25]: 0; SPOT intensity [26]: 0; SPOT intensity [27]: 0
30	0	20	0	12	0	19	11	5	2	0	8	13	0	180	22	4	1	0	4	VTHRLRISIPGITGR	SPOT intensity [21]: 14; SPOT intensity [22]: 382; SPOT intensity [23]: 46; SPOT intensity [24]: 72; SPOT intensity [25]: 0; SPOT intensity [26]: 225; SPOT intensity [27]: 0

Reference: PMC2756588
